The supplement of paper PMC9112550, “Optimization of the antimicrobial peptide Bac7 by deep mutational scanning” (BMC Biology, 2022)

Tested on: Escherichia coli TOP10
Assay: shrunken log2 fold change of peptide-encoding DNA abundance (4.5 h post-induction vs induction); higher = less antimicrobial activity (less host growth inhibition)
Details: time post-induction: 4.5 h; library: site-saturation at positions 5, 18, 19, 20
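Further: peptides expressed intracellularly from a pBAD plasmid library in pooled LB shake-flask culture, induced with 0.3% L-arabinose, DNA abundance read by NGS, three biological replicates, DESeq2 with apeglm shrinkage.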

Sequence | shrunken log2 fold change
RRIRERPPRLPRPRPRPYYDPRP | -0.362
RRIRFRPPRLPRPRPRPFKQPRP | -0.242
RRIRRRPPRLPRPRPRPSPKPRP | 0.127
RRIRCRPPRLPRPRPRPWQGPRP | -0.0944
RRIRMRPPRLPRPRPRPKKTPRP | 1.46
RRIRWRPPRLPRPRPRPNVKPRP | -0.278
RRIRPRPPRLPRPRPRPHCEPRP | 0.308
RRIRSRPPRLPRPRPRPWLDPRP | -0.0811
RRIRSRPPRLPRPRPRPFCEPRP | -0.0573
RRIRHRPPRLPRPRPRPNFAPRP | 0.303
RRIRDRPPRLPRPRPRPNAWPRP | -0.0496
RRIRGRPPRLPRPRPRPWIAPRP | -0.0596
RRIRFRPPRLPRPRPRPAGCPRP | 0.229
RRIRDRPPRLPRPRPRPLYCPRP | -0.333
RRIRDRPPRLPRPRPRPAMQPRP | 0.194
RRIRSRPPRLPRPRPRPCMTPRP | -0.102
RRIRMRPPRLPRPRPRPRVDPRP | 0.95
RRIRLRPPRLPRPRPRPNYAPRP | -0.0328
RRIRIRPPRLPRPRPRPLIEPRP | -0.475
RRIRARPPRLPRPRPRPHVAPRP | 0.114
RRIRHRPPRLPRPRPRPCPMPRP | -0.0207
RRIRGRPPRLPRPRPRPDYQPRP | -0.418
RRIRMRPPRLPRPRPRPFVTPRP | -0.269
RRIRQRPPRLPRPRPRPIVHPRP | -0.265
RRIRQRPPRLPRPRPRPQNLPRP | -0.0271

Sequence | shrunken log2 fold change
RRIRHRPPRLPRPRPRPEHYPRP | 0.504
RRIRMRPPRLPRPRPRPIFSPRP | 0.0637
RRIRMRPPRLPRPRPRPITHPRP | 0.0509
RRIRCRPPRLPRPRPRPSFYPRP | -0.793
RRIRFRPPRLPRPRPRPDESPRP | -0.0167
RRIRVRPPRLPRPRPRPLKNPRP | -0.0569
RRIRDRPPRLPRPRPRPFKAPRP | -0.334
RRIRYRPPRLPRPRPRPLPWPRP | -0.132
RRIRWRPPRLPRPRPRPLDSPRP | 0.0674
RRIRRRPPRLPRPRPRPSCNPRP | -0.112
RRIRLRPPRLPRPRPRPKMQPRP | 0.282
RRIRHRPPRLPRPRPRPVDMPRP | -0.201
RRIRTRPPRLPRPRPRPRHGPRP | 0.745
RRIRQRPPRLPRPRPRPSEYPRP | -0.44
RRIRARPPRLPRPRPRPSAYPRP | 0.0396
RRIRFRPPRLPRPRPRPMVQPRP | -0.106
RRIRCRPPRLPRPRPRPGYYPRP | -0.281
RRIRKRPPRLPRPRPRPEASPRP | 0.497
RRIRIRPPRLPRPRPRPDPKPRP | -0.183
RRIRTRPPRLPRPRPRPMRDPRP | 0.00292
RRIRDRPPRLPRPRPRPNKEPRP | 0.0313
RRIRGRPPRLPRPRPRPPKAPRP | 0.63
RRIRTRPPRLPRPRPRPYSCPRP | -0.0718
RRIRFRPPRLPRPRPRPADSPRP | -0.187
RRIRDRPPRLPRPRPRPCTYPRP | -0.0116

Sequence | shrunken log2 fold change
RRIRMRPPRLPRPRPRPMHAPRP | 0.327
RRIRNRPPRLPRPRPRPRQKPRP | -0.0544
RRIRYRPPRLPRPRPRPINVPRP | -0.208
RRIRLRPPRLPRPRPRPRSDPRP | 0.126
RRIRMRPPRLPRPRPRPENMPRP | 0.0343
RRIRSRPPRLPRPRPRPVVWPRP | 0.462
RRIRNRPPRLPRPRPRPIWFPRP | 0.205
RRIRNRPPRLPRPRPRPIDEPRP | -0.0586
RRIRDRPPRLPRPRPRPPCCPRP | -0.124
RRIRRRPPRLPRPRPRPKEMPRP | 0.0252
RRIRNRPPRLPRPRPRPQQSPRP | -0.0808
RRIRGRPPRLPRPRPRPSNKPRP | -0.0675
RRIRSRPPRLPRPRPRPVSLPRP | -0.122
RRIRVRPPRLPRPRPRPSDRPRP | 0.194
RRIRNRPPRLPRPRPRPLPHPRP | -0.387
RRIRYRPPRLPRPRPRPGMRPRP | 0.561
RRIRMRPPRLPRPRPRPIDQPRP | 0.0164
RRIRPRPPRLPRPRPRPVIMPRP | -0.634
RRIRFRPPRLPRPRPRPWPTPRP | -0.0457
RRIRNRPPRLPRPRPRPVRPPRP | 0.555
RRIRIRPPRLPRPRPRPVMMPRP | -0.31
RRIRCRPPRLPRPRPRPRQLPRP | 0.0916
RRIRFRPPRLPRPRPRPEQAPRP | -0.0421
RRIRCRPPRLPRPRPRPTCCPRP | -0.354
RRIRARPPRLPRPRPRPVCQPRP | 0.58

Sequence | shrunken log2 fold change
RRIRRRPPRLPRPRPRPCDHPRP | 0.0118
RRIRMRPPRLPRPRPRPCHYPRP | -0.112
RRIRWRPPRLPRPRPRPGDHPRP | -0.0565
RRIRERPPRLPRPRPRPWWEPRP | 0.0397
RRIRNRPPRLPRPRPRPIMAPRP | -0.187
RRIRWRPPRLPRPRPRPKCGPRP | 0.594
RRIRTRPPRLPRPRPRPPFVPRP | 0.227
RRIRSRPPRLPRPRPRPQHYPRP | -0.804
RRIRNRPPRLPRPRPRPMWYPRP | -0.0267
RRIRLRPPRLPRPRPRPKCAPRP | 0.0163
RRIRVRPPRLPRPRPRPMFYPRP | -0.725
RRIRPRPPRLPRPRPRPSQTPRP | 0.265
RRIRARPPRLPRPRPRPWKYPRP | -0.408
RRIRKRPPRLPRPRPRPDWTPRP | 1.54
RRIRERPPRLPRPRPRPEYWPRP | 0.126
RRIRNRPPRLPRPRPRPIVLPRP | -0.211
RRIRFRPPRLPRPRPRPQREPRP | 0.296
RRIRFRPPRLPRPRPRPPTRPRP | 0.748
RRIRMRPPRLPRPRPRPDVAPRP | 0.0335
RRIRHRPPRLPRPRPRPCELPRP | 0.00567
RRIRRRPPRLPRPRPRPPGLPRP | 0.658
RRIRMRPPRLPRPRPRPRDNPRP | 0.455
RRIRTRPPRLPRPRPRPFQCPRP | -0.0173
RRIRIRPPRLPRPRPRPLIPPRP | -0.692
RRIRDRPPRLPRPRPRPYQFPRP | -0.0464

Sequence | shrunken log2 fold change
RRIRKRPPRLPRPRPRPYFPPRP | -0.348
RRIRHRPPRLPRPRPRPSFGPRP | -0.561
RRIRLRPPRLPRPRPRPNESPRP | -0.00771
RRIRSRPPRLPRPRPRPEADPRP | 0.688
RRIRHRPPRLPRPRPRPSRLPRP | 0.39
RRIRRRPPRLPRPRPRPHWFPRP | -0.198
RRIRMRPPRLPRPRPRPYCQPRP | -0.0783
RRIRSRPPRLPRPRPRPMDWPRP | -0.0477
RRIRARPPRLPRPRPRPWSHPRP | -0.186
RRIRARPPRLPRPRPRPRWHPRP | 0.323
RRIRRRPPRLPRPRPRPIWKPRP | -0.184
RRIRQRPPRLPRPRPRPKGHPRP | -0.139
RRIRSRPPRLPRPRPRPLGIPRP | -0.036
RRIRWRPPRLPRPRPRPCIIPRP | -0.222
RRIRSRPPRLPRPRPRPGAFPRP | 0.0905
RRIRMRPPRLPRPRPRPLVKPRP | -0.174
RRIRPRPPRLPRPRPRPKNFPRP | -0.262
RRIRPRPPRLPRPRPRPWATPRP | -0.213
RRIRGRPPRLPRPRPRPQVDPRP | 0.266
RRIRPRPPRLPRPRPRPIWWPRP | 0.665
RRIRERPPRLPRPRPRPQRMPRP | -0.411
RRIRQRPPRLPRPRPRPICAPRP | 0.36
RRIRCRPPRLPRPRPRPYGMPRP | -0.0815
RRIRERPPRLPRPRPRPNWPPRP | 0.202
RRIRGRPPRLPRPRPRPHVSPRP | 0.396
